± gives the uncertainty stated by the source.
B1: CD2-associated protein, residues 271 to 331; numbered along this chain, Q9Y5K6 (parent)
chain: KEYCRTLFAYEGTNEDELTFKEGEIIHLISKETGEAGWWRGELNGKEGVFPDNFAVQINEL

Variants of: B1
Test: abundance fitness (aPCA) (normalised: wild type 0, dead -1); higher = more abundant; growth selection in yeast, the domain comes from the species named
Conditions: Homo sapiens

Variant	abundance fitness
KEYCRTLFAYEGTNEDFLTFKEGEIIHLISKETGEAGWWRGELNGKEGVFPDNFAVQINEL [E17F]	-0.53 ± 0.12
KEYCRTLFAYEGTNEDCLTFKEGEIIHLISKETGEAGWWRGELNGKEGVFPDNFAVQINEL [E17C]	-0.182 ± 0.076
KEYCRTLFAYEGTNEDALTFKEGEIIHLISKETGEAGWWRGELNGKEGVFPDNFAVQINEL [E17A]	-0.233 ± 0.083
KEYCRTLFAYEGTNEDSLTFKEGEIIHLISKETGEAGWWRGELNGKEGVFPDNFAVQINEL [E17S]	-0.259 ± 0.052
KEYCRTLFAYEGTNEDRLTFKEGEIIHLISKETGEAGWWRGELNGKEGVFPDNFAVQINEL [E17R]	-0.483 ± 0.048
KEYCRTLFAYEGTNEDILTFKEGEIIHLISKETGEAGWWRGELNGKEGVFPDNFAVQINEL [E17I]	-0.991 ± 0.19
KEYCRTLFAYEGTNEDYLTFKEGEIIHLISKETGEAGWWRGELNGKEGVFPDNFAVQINEL [E17Y]	-0.463 ± 0.075
KEYCRTLFAYEGTNEDKLTFKEGEIIHLISKETGEAGWWRGELNGKEGVFPDNFAVQINEL [E17K]	-0.619 ± 0.093
KEYCRTLFAYEGTNEDQLTFKEGEIIHLISKETGEAGWWRGELNGKEGVFPDNFAVQINEL [E17Q]	0.049 ± 0.071
KEYCRTLFAYEGTNEDNLTFKEGEIIHLISKETGEAGWWRGELNGKEGVFPDNFAVQINEL [E17N]	-0.755 ± 0.2
KEYCRTLFAYEGTNEDMLTFKEGEIIHLISKETGEAGWWRGELNGKEGVFPDNFAVQINEL [E17M]	-0.362 ± 0.097
KEYCRTLFAYEGTNEDDLTFKEGEIIHLISKETGEAGWWRGELNGKEGVFPDNFAVQINEL [E17D]	-0.213 ± 0.13
KEYCRTLFAYEGTNEDWLTFKEGEIIHLISKETGEAGWWRGELNGKEGVFPDNFAVQINEL [E17W]	-0.855 ± 0.083
KEYCRTLFAYEGTNEDHLTFKEGEIIHLISKETGEAGWWRGELNGKEGVFPDNFAVQINEL [E17H]	-0.107 ± 0.1
KEYCRTLFAYEGTNEDVLTFKEGEIIHLISKETGEAGWWRGELNGKEGVFPDNFAVQINEL [E17V]	-0.497 ± 0.08
KEYCRTLFAYEGTNEDPLTFKEGEIIHLISKETGEAGWWRGELNGKEGVFPDNFAVQINEL [E17P]	-1.12 ± 0.22
KEYCRTLFAYEGTNEDTLTFKEGEIIHLISKETGEAGWWRGELNGKEGVFPDNFAVQINEL [E17T]	-0.428 ± 0.067
KEYCRTLFAYEGTNEDLLTFKEGEIIHLISKETGEAGWWRGELNGKEGVFPDNFAVQINEL [E17L]	-0.744 ± 0.065
KEYCRTLFAYEGTNEDGLTFKEGEIIHLISKETGEAGWWRGELNGKEGVFPDNFAVQINEL [E17G]	-0.58 ± 0.078
KEYCRTLFAYEGTKEDELTFKEGEIIHLISKETGEAGWWRGELNGKEGVFPDNFAVQINEL [N14K]	-0.033 ± 0.088
KEYCRTLFAYEGTLEDELTFKEGEIIHLISKETGEAGWWRGELNGKEGVFPDNFAVQINEL [N14L]	-0.4 ± 0.072
KEYCRTLFAYEGTGEDELTFKEGEIIHLISKETGEAGWWRGELNGKEGVFPDNFAVQINEL [N14G]	-0.087 ± 0.072

Variant	abundance fitness
KEYCRTLFAYEGTAEDELTFKEGEIIHLISKETGEAGWWRGELNGKEGVFPDNFAVQINEL [N14A]	-0.023 ± 0.078
KEYCRTLFAYEGTVEDELTFKEGEIIHLISKETGEAGWWRGELNGKEGVFPDNFAVQINEL [N14V]	-0.421 ± 0.089
KEYCRTLFAYEGTREDELTFKEGEIIHLISKETGEAGWWRGELNGKEGVFPDNFAVQINEL [N14R]	-0.061 ± 0.066
KEYCRTLFAYEGTYEDELTFKEGEIIHLISKETGEAGWWRGELNGKEGVFPDNFAVQINEL [N14Y]	-0.38 ± 0.14
KEYCRTLFAYEGTEEDELTFKEGEIIHLISKETGEAGWWRGELNGKEGVFPDNFAVQINEL [N14E]	-0.159 ± 0.092
KEYCRTLFAYEGTCEDELTFKEGEIIHLISKETGEAGWWRGELNGKEGVFPDNFAVQINEL [N14C]	0.029 ± 0.097
KEYCRTLFAYEGTSEDELTFKEGEIIHLISKETGEAGWWRGELNGKEGVFPDNFAVQINEL [N14S]	-0.024 ± 0.061
KEYCRTLFAYEGTFEDELTFKEGEIIHLISKETGEAGWWRGELNGKEGVFPDNFAVQINEL [N14F]	-0.336 ± 0.13
KEYCRTLFAYEGTWEDELTFKEGEIIHLISKETGEAGWWRGELNGKEGVFPDNFAVQINEL [N14W]	-0.239 ± 0.11
KEYCRTLFAYEGTIEDELTFKEGEIIHLISKETGEAGWWRGELNGKEGVFPDNFAVQINEL [N14I]	-0.202 ± 0.11
KEYCRTLFAYEGTDEDELTFKEGEIIHLISKETGEAGWWRGELNGKEGVFPDNFAVQINEL [N14D]	-0.107 ± 0.1
KEYCRTLFAYEGTMEDELTFKEGEIIHLISKETGEAGWWRGELNGKEGVFPDNFAVQINEL [N14M]	-0.172 ± 0.081
KEYCRTLFAYEGTTEDELTFKEGEIIHLISKETGEAGWWRGELNGKEGVFPDNFAVQINEL [N14T]	-0.041 ± 0.072
KEYCRTLFAYEGTHEDELTFKEGEIIHLISKETGEAGWWRGELNGKEGVFPDNFAVQINEL [N14H]	-0.107 ± 0.074
KEYCRTLFAYEGTQEDELTFKEGEIIHLISKETGEAGWWRGELNGKEGVFPDNFAVQINEL [N14Q]	-0.012 ± 0.081
KEYCRTLFAYEGTPEDELTFKEGEIIHLISKETGEAGWWRGELNGKEGVFPDNFAVQINEL [N14P]	-0.756 ± 0.12
KEYCRTLFAYEGTNEEELTFKEGEIIHLISKETGEAGWWRGELNGKEGVFPDNFAVQINEL [D16E]	-0.018 ± 0.054
KEYCRTLFAYEGTNEPELTFKEGEIIHLISKETGEAGWWRGELNGKEGVFPDNFAVQINEL [D16P]	-0.738 ± 0.086
KEYCRTLFAYEGTNENELTFKEGEIIHLISKETGEAGWWRGELNGKEGVFPDNFAVQINEL [D16N]	0.014 ± 0.086
KEYCRTLFAYEGTNEYELTFKEGEIIHLISKETGEAGWWRGELNGKEGVFPDNFAVQINEL [D16Y]	-0.072 ± 0.092
KEYCRTLFAYEGTNEQELTFKEGEIIHLISKETGEAGWWRGELNGKEGVFPDNFAVQINEL [D16Q]	-0.105 ± 0.072
